Where two headings read alike, the source gives them in different places.
Tests used:
[1] = target: T1, human IGSF11 (VSIG3) expressed on cells (human, UniProt Q5DX21 23-431); experiment: FACS, DMS 273 cells with IGSF11 siRNA (KD, knock-down control)
T1 sequence: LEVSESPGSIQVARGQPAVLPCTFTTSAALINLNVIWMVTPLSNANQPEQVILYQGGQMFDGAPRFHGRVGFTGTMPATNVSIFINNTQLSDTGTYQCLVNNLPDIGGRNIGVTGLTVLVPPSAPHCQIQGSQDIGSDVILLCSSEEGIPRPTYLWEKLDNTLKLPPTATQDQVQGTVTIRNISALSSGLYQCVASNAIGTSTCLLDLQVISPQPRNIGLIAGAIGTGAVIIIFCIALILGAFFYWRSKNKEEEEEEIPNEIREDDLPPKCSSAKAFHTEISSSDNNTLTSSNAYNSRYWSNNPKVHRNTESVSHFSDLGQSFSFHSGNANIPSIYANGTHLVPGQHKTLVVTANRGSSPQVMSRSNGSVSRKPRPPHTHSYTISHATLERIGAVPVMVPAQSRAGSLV

[2] = target: T1, human IGSF11 (VSIG3) expressed on cells; experiment: IgG1 FACS HEK-OE
[3] = target: T2, human IGSF11 (VSIG3) ECD, His-tagged (human, UniProt Q5DX21 23-241); experiment: IgG1 ELISA EC50 <0.02 nM
T2 construct: in part bought (SinoBiological 13094-H08H); also called HIS-IGSF11; IGSF11-HIS; not shown: His tag
T2 sequence: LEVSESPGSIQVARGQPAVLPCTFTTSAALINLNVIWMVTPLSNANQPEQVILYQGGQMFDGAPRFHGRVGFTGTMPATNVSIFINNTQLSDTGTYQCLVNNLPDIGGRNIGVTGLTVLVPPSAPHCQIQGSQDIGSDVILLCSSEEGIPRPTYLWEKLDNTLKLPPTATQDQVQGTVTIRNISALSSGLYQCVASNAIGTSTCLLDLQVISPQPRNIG

[4] = target: T3, extracellular domain (ECD) of human IGSF11 (VSIG3), recombinant (human, UniProt Q5DX21 23-241); experiment: BLI
T3 construct: biotinylated where captured on streptavidin; tags of the reagent not always stated; also called IGSF11 (ECD domain); ECD-IGSF11
T3 sequence: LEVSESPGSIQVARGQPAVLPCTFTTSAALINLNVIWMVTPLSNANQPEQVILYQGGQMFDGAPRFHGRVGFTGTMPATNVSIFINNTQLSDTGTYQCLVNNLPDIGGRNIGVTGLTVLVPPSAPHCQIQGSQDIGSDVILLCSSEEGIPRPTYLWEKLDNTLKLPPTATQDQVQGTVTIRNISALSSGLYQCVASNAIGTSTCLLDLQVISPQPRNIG

[5] = target: T1, human IGSF11 (VSIG3) expressed on cells; experiment: FACS, DMS 273 cells with scrambled control siRNA (SC)
[6] = target: T1, human IGSF11 (VSIG3) expressed on cells; experiment: FACS, M579-A2-luc cells with IGSF11 siRNA (KD, knock-down control)
[7] = target: T4, full-length ECD of human IGSF11 fused to murine Fc (human, UniProt Q5DX21 23-241); experiment: IgG ELISA
T4 construct: also called Fc-fusion IGSF11 ECD; not shown: murine Fc
T4 sequence: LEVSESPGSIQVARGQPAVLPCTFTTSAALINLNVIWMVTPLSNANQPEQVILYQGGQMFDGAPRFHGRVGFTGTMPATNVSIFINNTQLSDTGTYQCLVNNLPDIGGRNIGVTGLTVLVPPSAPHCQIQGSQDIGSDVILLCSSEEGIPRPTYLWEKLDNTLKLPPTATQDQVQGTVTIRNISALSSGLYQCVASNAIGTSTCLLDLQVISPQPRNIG

[8] = target: T5, IgC2 domain of human IGSF11 fused to murine IgG2a Fc (human, UniProt Q5DX21 137-241); experiment: IgG ELISA
T5 construct: not shown: murine IgG2a Fc-region
T5 sequence: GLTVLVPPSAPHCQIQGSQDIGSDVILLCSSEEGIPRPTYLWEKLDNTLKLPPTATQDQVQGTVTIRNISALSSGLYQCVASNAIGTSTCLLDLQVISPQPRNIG

[9] = target: T3, extracellular domain (ECD) of human …; experiment: SPR
[10] = target: T1, human IGSF11 (VSIG3) expressed on cells; experiment: FACS, M579-A2-luc cells with scrambled control siRNA (SC)
[11] = target: T6, IgV domain of human IGSF11 fused to murine IgG2a Fc (human, UniProt Q5DX21 23-143); experiment: IgG ELISA
T6 construct: not shown: murine IgG2a Fc-region
T6 sequence: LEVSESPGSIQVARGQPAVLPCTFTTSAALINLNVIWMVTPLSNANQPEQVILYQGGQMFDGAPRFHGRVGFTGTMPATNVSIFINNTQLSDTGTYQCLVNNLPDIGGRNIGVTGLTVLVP

[12] = target: T2, human IGSF11 (VSIG3) ECD, His-tagged; experiment: blocking ELISA: VSIR-Fc immobilised, IgG dilution series pre-incubated with 200 nM IGSF11 ECD-His, bound IGSF11 detected with anti-His-HRP
[13] = target: T2, human IGSF11 (VSIG3) ECD, His-tagged; experiment: ELISA: IGSF11-HIS coated, IgG1 dilution series, anti-human antibody-HRP, TMB
[14] = target: T1, human IGSF11 (VSIG3) expressed on cells; experiment: IgG1 FACS DMS 273
[15] = target: T3, extracellular domain (ECD) of human …; experiment: SPR; remark: listed apart in the source
[16] = target: T2, human IGSF11 (VSIG3) ECD, His-tagged; experiment: ELISA: IGSF11-HIS coated, IgG1 dilution series, anti-human antibody-HRP, TMB; remark: listed apart in the source
[17] = target: T2, human IGSF11 (VSIG3) ECD, His-tagged; experiment: blocking ELISA: VSIR-Fc immobilised, IgG dilution series pre-incubated with 200 nM IGSF11 ECD-His, bound IGSF11 detected with anti-His-HRP; remark: listed apart in the source
[18] = target: T2, human IGSF11 (VSIG3) ECD, His-tagged; experiment: IgG1 ELISA EC50 0.02-0.05 nM

B1: A-011 (IgG1 format) (antibody, V domains shown)
VH: QVQLVESGGGVVQPGRSLRLSCAASGFTFSSYAMHWVRQAPGKGLEWVAVISYDGSNKYYADSVKGRFTISRDNSKNTLYLQMNSLRAEDTAVYYCAEGGALNYYGMDVWGQGTTVTVSS
VL: SSELTQDPGVSVALGQTVRITCQGDSLRHFYATWYQQKPGQAPILVIYGKNNRPSGIPDRFSGSSSEDTASLTITGAQAEDEADYYCQSRDPRNNHLIFGGGTKLIVL
notes: human IgG1 format
With B1 the “% binding (FACS heat-map)” value [1] was 3.4%, the EC50 [2] was over 50 nM and the EC50 [3] was under 0.02 nM. For the same binder, the Kd [4] was 10 to 20 nM, the “% binding (FACS heat-map)” value [5] was 6.95% and the “% binding (FACS heat-map)” value [6] was 2.41%. It also gave an EC50 [7] of under 1 nM, an EC50 [8] of under 1 nM and a Kd [9] of 250 to 500 nM. The “% binding (FACS heat-map)” value [10] was 2.05%.

B2: A-004 (IgG1 format) (antibody, V domains shown)
VH: EVQLVESGGGLVKPGGSLRLSCAASGFTFSSYSMNWVRQAPGKGLEWVSSISSSSSYIYYADSVKGRFTISRDNAKNSLYLQMNSLRAEDTAVYYCARGQLLWFGESALIDAFDIWGQGTMVTVSS
VL: EIVLTQSPSSLSASVGDRVTITCRASQSISSYLNWYQLKPGKAPKLLIYAASILQSGVPSRFSGSGSGTDFTLTISSLQPEDFAAYYCQQSYSTPRTFGQGTKLEIK
notes: human IgG1 format
B2 was tested, and the EC50 [3] was under 0.02 nM, the EC50 [7] was 1 to 20 nM and the EC50 [11] was 1 to 20 nM. For the same binder, the Kd [9] was 100 to 250 nM.

B3: B-002 (chain-swapped IgG1) (antibody, V domains shown)
VH: EVQLVESGGGLIQPGGSLRLSCAASGFTVSSNYMSWVRQAPGKGLEWVSVIYSGGSTYYADSVKGRFTISRDNSKNTLYLQMNSLRAEDTAVYYCARGNPYYYGDLQVNFDYWGQGTLVTVSS
VL: QAVVTQEPSLTVSPGGTVTLTCASSTGAVTSGYYPNWFQQKPGQAPRALIYSTSNKHSWTPARFSGSLLGGKAALTLSGVQPEDEAEYYCLLYYGGAWVFGGGTKLTVL
notes: human IgG1 format; also called B2
B3 was tested, and the “IC50 (read off the curve)” value [12] was 4 to 5 nM, the “% binding (FACS heat-map)” value [1] was 8.68% and the EC50 [2] was 10 to 50 nM. The “EC50 (read off the curve)” value [13] was about 0.01 nM, the “% binding (FACS heat-map)” value [5] was 80.1% and the “% binding (FACS heat-map)” value [6] was 2.77%. The “% binding (FACS heat-map)” value [10] was 70.7%, the EC50 [14] was over 50 nM and the Kd [15] was 100 to 250 nM.

B4: A-012 (IgG1 format) (antibody, V domains shown)
VH: EVQLLESGGGLIQPGGSLRLSCAVSGFTVSSNYMSWVRQAPGKGLEWVSVIYSGGSTYYADSVKGRFTISRDNSKNTLYLQMNSLRAEDTAVYYCARGNPYYYGDLQVNFDYWGQGTLVTVSS
VL: QAVVTQEPSLTVSPGGTVTLTCASSTGAVTSGYYPNWFQQKPGQAPRALIYSTSNKHSWTPARFSGSLLGGKAALTLSGVQPEDEAEYYCLLYYGGAWVFGGGTKLTVL
notes: human IgG1 format
In the case of B4, the “% binding (FACS heat-map)” value [1] is reported as 4.77%, the EC50 [2] is reported as 10 to 50 nM and the “EC50 (read off the curve)” value [16] is reported as about 0.008 nM. The “IC50 (read off the curve)” value [17] was about 2 nM, the EC50 [18] was 0.02 to 0.05 nM and the Kd [4] was 1 to 10 nM. For the same binder, the “% binding (FACS heat-map)” value [5] was 75.8%, the “% binding (FACS heat-map)” value [6] was 2.35% and the Kd [9] was 250 to 500 nM. The “% binding (FACS heat-map)” value [10] was 65.4% and the EC50 [14] was 10 to 50 nM.

B5: B-001 (chain-swapped IgG1) (antibody, V domains shown)
VH: EVQLLESGGGLIQPGGSLRLSCAVSGFTVSSNYMSWVRQAPGKGLEWVSVIYSGGSTYYADSVKGRFTISRDNSKNTLYLQMNSLRAEDTAVYYCARGNPYYYGDLQVNFDYWGQGTLVTVSS
VL: QAVVTQEPSLTVSPGGTVTLTCASSTGAVTSAYYPNWFQQKPGQAPRALIYSTSNKHSWTPARFSGSLLGGKAALTLSGVQPEDEADYYCLLYYGGAWVFGGGTKLTVL
notes: human IgG1 format; also called B1
In the case of B5, the EC50 [2] is reported as 10 to 50 nM, the “IC50 (read off the curve)” value [17] is reported as about 2 nM and the Kd [15] is reported as 250 to 500 nM.

B6: B-003 (chain-swapped IgG1) (antibody, V domains shown)
VH: EVQLLESGGGLIQPGGSLRLSCAVSGFTVSSNYMSWVRQAPGKGLEWVSVIYSGGSTYYADSVKGRFTISRDNSKNTLYLQMNSLRAEDTAVYYCARGNPYYYGDLQVNFDYWGQGTLVTVSS
VL: QAVVTQEPSLTVSPGETVTLTCASSTGAVTSGYYPNWFQQRPGQAPRALIYSTSNKDSWTPARFSGSLLGGKAALTLSGVQPEDEAEYYCLLYYGGAWVFGGGTKLTVL
notes: human IgG1 format; also called B3
With B6 the “EC50 (read off the curve)” value [16] was about 0.008 nM and the “IC50 (read off the curve)” value [17] was about 2 nM.

B7: B-005 (chain-swapped IgG1) (antibody, V domains shown)
VH: EVQLLESGGGLIQPGGSLRLSCAVSGFTVSSNYMSWVRQAPGKGLEWVSVIYSGGSTYYADSVKGRFTISRDNSKNTLYLQMNSLRAEDTAVYYCARGNPYYYGDLQVNFDYWGQGTLVTVSS
VL: QAVVTQEPSLTVSPGGTVTPTCGSSTGAVTSGNLPNWFQQKPGQAPRALIYSTSNKHSWTPARISGSLLGGKAALTLSGVQPEDEAEYYCLLYYGGAWVFGGGTKLTVL
notes: human IgG1 format; also called B5
In the case of B7, the “EC50 (read off the curve)” value [16] is reported as about 0.01 nM and the “IC50 (read off the curve)” value [17] is reported as about 2 nM.

B8: A-026 (IgG1 format) (antibody, V domains shown)
VH: QVQLQESGPGLVKPSQTLSLTCTVSGGSISSGGYYWSWIRQHPGKGLEWIGYIYYSGSTYYNPSLKSRVTISVDTSKNQFSLKLSSVTAADTAVYYCASWSLGTSNHGWFDPWGQGTLVTVSS
VL: QSVLTQPPSASGTPGQRVTISCSGSSSNIGSNTVNWYQQLPGTAPKLLISDNNNRPSGVPDRFSGSKSGTSASLAITGLQAEDEADYYCQSYDSNLSGWVFGGGTKLTVL
notes: human IgG1 format
In the case of B8, the “% binding (FACS heat-map)” value [1] is reported as 3.81%, the EC50 [2] is reported as over 50 nM and the EC50 [18] is reported as 0.02 to 0.05 nM. The Kd [4] was 20 to 30 nM, the “% binding (FACS heat-map)” value [5] was 64.4% and the “% binding (FACS heat-map)” value [6] was 2.01%. The EC50 [7] was 1 to 20 nM, the EC50 [8] was 1 to 20 nM and the Kd [9] was over 500 nM. The “% binding (FACS heat-map)” value [10] was 11.6%.

B9: A-010 (IgG1 format) (antibody, V domains shown)
VH: QVQLVQSGAEVKKPGASVKVSCKASGYTFTSYGISWVRQAPGQGLEWMGWISAYNGNTNYAQKLQGRVTMTTDTSTSTAYMELRSLRSDDTAVYYCARVPAWSGQFDYWGQGTLVTVSS
VL: QSALTQPASVSGSPGQSITISCTGSSSDVGGYNYVSWYQQYPGKAPKLMIYDVRSRPSGVSNRFSGSKSGNTASLTISGLQAEDEADYYCTSYTSSNTLVIFGGGTKVTVL
notes: human IgG1 format
In the case of B9, the EC50 [3] is reported as under 0.02 nM, the EC50 [7] is reported as under 1 nM and the EC50 [11] is reported as under 1 nM.

— US20220372138A1 (IOMX THERAPEUTICS, published 2022)
